B1: mAb25491 (antibody, V domains shown)
VH: QVQLVQSGAEVMKPGASVKVSCKASGYTFTGYYIHWVRQAPGQGLEWMGWITPNSGATNYAQKFQGRVTLTRDTSISTAYMELTRLKSDDTAVYYCARGGQLEFFYYYYGMDVWGQGTTVTVSS
VL: DIQMTQSPSSLSASAGDRVTITCRASQSIDSYLNWYQQKPGKAPKLLISATSGFQSGVPSRFSGSGSGTDFTLTISSLQPEDFGTYYCQQSYTTPITFGQGTRLEIK
B2: mAb22805 (antibody, V domains shown)
VH: QVQLVESGGGVVQPGRSLRLSCAASGFTFSTYGMHWVRQAPGKGLEWVALIWNDGSNKYYADSVKGRFTISRDNSKNTLDLQMNSLRAEDTAVYYCARLNTRITGTTNLDYWGQGTLVTVSS
VL: DIQMTQSPSSLSASVGDRVTVSCRASQSIANYLNWYQQKPGKAPNLLIYGAYTLQSGVPSRFRGSGSGTDFTLTISSLQPEDFATYYCQQTYSTPPITFGQGTRLEIK
B3: mAb25479 (antibody, V domains shown)
VH: QVQLVQSGAEVKKPGASVKVSCKASGYTFTGYYIHWVRQAPGQGLEWMGWINPNSIGTNYAQKFQGRVTLTRDTSISTAYMELSSLRSDDTAVYYCARGGSSSYYYYYYGMDVWGQGTTVTVSS
VL: DIQMTQSPSSLSASVGDRVTITCRASQSIDNYLNWYQQKPGKAPKLLIYVASSLQSGVPSRFSGSGSGTDFTLTISSLQPEDFATYYCQQSYSTPLTFGGGTKVEIK
B4: mAb25497 (antibody, V domains shown)
VH: QVQLVQSGAEVKEPGASVKVSCKASGYTFTDYYIHWVRQAPGQGLEWMGWINLNSGGKNHAQKFQGRVTVTSDTSINTAYIELGRLRGDDTAVYYCSRGGGSHYYYYYHGMDVWGQGTTVTVSS
VL: DIQMTQSPSSLSASVGDRITITCRASHSIDSYLNWYQQKPGKAPKLLIYPASTLQSGVPSRFSGSGSGTDFTLTISSLQPEDSAIYYCQQSYSTPLTFGGGTKVEIK

Assays:
[1] = biological target: T1, mouse NPR1 extracellular domain expressed with a C-terminal mouse IgG2a (mNPR1-mFc) (mouse); assay: SPR, Tables 21 to 26
T1 chain: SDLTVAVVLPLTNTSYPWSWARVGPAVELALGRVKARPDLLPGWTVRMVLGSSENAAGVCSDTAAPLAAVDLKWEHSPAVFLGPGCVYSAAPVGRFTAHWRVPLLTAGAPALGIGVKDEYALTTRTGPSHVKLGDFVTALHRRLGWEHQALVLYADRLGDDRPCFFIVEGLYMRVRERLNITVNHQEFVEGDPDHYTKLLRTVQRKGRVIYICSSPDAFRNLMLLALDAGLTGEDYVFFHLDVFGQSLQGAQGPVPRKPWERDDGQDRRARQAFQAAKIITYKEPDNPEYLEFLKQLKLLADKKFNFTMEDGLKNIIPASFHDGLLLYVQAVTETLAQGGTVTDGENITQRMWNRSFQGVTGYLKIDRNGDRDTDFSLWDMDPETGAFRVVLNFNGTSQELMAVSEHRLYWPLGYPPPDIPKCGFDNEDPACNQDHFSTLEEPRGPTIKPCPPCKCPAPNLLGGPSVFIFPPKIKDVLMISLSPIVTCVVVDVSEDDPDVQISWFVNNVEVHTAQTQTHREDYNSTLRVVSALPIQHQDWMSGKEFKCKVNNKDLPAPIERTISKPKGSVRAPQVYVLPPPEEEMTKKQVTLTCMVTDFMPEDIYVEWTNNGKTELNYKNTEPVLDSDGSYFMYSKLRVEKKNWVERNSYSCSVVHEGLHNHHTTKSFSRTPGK
Experimental: (§1) Equilibrium dissociation constant (KD) for different NPR1 reagents binding to purified anti-NPR1 monoclonal antibodies (mAbs) were determined using a real-time surface plasmon resonance based Biacore 4000 biosensor. All binding studies were performed in 10 mM HEPES, 150 mM NaCl, 3 mM EDTA, and 0.05% v/v Surfactant Tween-20, pH 7.4 (HBS-ET) running buffer at 25° C. and 37° C. The Biacore CM5 sensor chip surface was first derivatized by amine coupling with either mouse anti-human Fc specific mAb (GE Healthcare, #BR100839) or goat anti-human Fcy specific polyclonal antibody (Jackson ImmunoResearch Laboratories, #BR-1008-39) to capture anti-NPR1 mAbs.

[2] = biological target: T2, human NPR1 extracellular domain expressed with a C-terminal myc-myc-hexahistidine (hNPR1-MMH) (human, UniProt P16066 33-473); assay: SPR, mAb captured, 25 C
T2 construct: also called hNPR.mmh; monomeric human NPR1
Experimental: as §1

[3] = biological target: T3, monkey NPR1 extracellular domain expressed with a C-terminal myc-myc-hexahistidine (mfNPR1-MMH) (monkey, UniProt P16066 33-473 (human entry)); assay: SPR, mAb captured, 25 C
T3 construct: also called monomeric monkey NPR1
T3 chain: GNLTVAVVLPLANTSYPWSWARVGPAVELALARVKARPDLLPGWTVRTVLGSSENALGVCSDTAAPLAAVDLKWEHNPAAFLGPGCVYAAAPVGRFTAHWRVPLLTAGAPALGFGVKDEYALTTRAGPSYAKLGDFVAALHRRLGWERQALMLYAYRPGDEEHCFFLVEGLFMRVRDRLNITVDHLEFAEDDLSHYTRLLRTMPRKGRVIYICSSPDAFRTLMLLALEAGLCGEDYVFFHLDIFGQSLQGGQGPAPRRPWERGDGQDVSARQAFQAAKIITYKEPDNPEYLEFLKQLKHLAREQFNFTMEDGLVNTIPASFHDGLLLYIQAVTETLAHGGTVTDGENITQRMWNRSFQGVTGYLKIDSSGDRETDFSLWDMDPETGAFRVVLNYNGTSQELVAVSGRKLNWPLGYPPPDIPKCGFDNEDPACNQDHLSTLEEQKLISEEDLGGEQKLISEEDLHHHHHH
Experimental: as §1

[4] = biological target: T4, mouse NPR1 extracellular domain expressed with a C-terminal myc-myc-hexahistidine (mNPR1-MMH) (mouse, UniProt P18293 29-469); assay: SPR, mAb captured, 25 C
Experimental: as §1

[5] = biological target: T5, human NPR1 extracellular domain expressed with a C-terminal mouse IgG2a (hNPR1-mFc) (human); assay: SPR, mAb captured, 25 C
T5 construct: also called hNPR1-Fc; human NPR1 dimer
T5 chain: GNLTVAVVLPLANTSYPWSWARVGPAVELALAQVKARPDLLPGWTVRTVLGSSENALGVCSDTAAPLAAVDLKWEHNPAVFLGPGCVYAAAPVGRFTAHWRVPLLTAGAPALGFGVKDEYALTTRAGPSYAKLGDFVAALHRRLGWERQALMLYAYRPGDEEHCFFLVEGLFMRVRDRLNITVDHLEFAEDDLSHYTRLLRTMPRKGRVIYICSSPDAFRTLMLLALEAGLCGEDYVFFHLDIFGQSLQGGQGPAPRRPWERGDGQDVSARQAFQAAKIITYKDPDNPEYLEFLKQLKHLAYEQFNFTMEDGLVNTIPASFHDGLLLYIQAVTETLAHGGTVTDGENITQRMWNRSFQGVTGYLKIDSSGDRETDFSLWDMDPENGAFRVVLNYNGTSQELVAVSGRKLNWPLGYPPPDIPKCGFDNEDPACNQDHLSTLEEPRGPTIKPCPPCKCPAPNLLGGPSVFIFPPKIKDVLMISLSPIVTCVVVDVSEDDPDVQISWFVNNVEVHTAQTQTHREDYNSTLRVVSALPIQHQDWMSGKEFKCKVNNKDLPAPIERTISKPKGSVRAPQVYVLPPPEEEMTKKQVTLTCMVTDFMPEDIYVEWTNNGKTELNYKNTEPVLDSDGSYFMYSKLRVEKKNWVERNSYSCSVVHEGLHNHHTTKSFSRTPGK
Experimental: as §1

[6] = biological target: T2, human NPR1 extracellular domain …; assay: SPR, mAb captured, 37 C
Experimental: as §1
Target sequence in this assay (P16066 other isoform, or with tags, fused parts or gaps): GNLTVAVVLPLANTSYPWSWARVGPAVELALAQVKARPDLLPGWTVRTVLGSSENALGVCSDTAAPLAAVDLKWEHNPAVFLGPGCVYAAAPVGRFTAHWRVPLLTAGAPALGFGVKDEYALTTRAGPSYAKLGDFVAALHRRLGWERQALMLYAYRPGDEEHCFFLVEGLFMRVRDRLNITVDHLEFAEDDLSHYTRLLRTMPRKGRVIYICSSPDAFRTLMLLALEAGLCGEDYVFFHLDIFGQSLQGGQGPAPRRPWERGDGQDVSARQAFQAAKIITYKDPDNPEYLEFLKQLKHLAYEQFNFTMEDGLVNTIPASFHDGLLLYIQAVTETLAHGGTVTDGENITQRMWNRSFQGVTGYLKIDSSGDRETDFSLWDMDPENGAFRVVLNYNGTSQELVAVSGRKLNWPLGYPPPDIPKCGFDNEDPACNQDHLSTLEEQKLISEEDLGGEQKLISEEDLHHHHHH

[7] = biological target: T3, monkey NPR1 extracellular domain …; assay: SPR, mAb captured, 37 C
Experimental: as §1

[8] = biological target: T4, mouse NPR1 extracellular domain …; assay: SPR, mAb captured, 37 C
Experimental: as §1
Target sequence in this assay (P18293 other isoform, or with tags, fused parts or gaps): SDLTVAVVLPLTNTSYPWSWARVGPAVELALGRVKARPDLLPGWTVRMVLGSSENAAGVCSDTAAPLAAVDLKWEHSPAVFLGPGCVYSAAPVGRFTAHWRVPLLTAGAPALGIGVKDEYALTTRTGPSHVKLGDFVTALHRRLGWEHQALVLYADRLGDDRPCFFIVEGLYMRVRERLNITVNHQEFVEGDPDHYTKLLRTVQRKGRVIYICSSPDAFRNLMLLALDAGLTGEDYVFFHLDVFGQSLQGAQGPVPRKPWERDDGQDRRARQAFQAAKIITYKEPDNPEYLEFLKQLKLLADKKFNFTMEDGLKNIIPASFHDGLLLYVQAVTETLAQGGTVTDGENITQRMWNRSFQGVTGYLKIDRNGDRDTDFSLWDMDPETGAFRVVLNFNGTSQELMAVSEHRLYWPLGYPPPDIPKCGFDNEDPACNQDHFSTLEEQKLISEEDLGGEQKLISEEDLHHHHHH

[9] = biological target: T5, human NPR1 extracellular domain …; assay: SPR, mAb captured, 37 C
Experimental: as §1

Row | Binder | binding result [1] | 100 nM Ag Bound (RU) [2] | Kd [2] | koff [2] | kon [2] | t½ [2] | 100 nM Ag Bound (RU) [3] | Kd [3] | koff [3] | kon [3] | t½ [3] | 100 nM Ag Bound (RU) [4] | binding result [4] | 100 nM Ag Bound (RU) [5] | Kd [5] | koff [5] | 100 nM Ag Bound (RU) [6] | 100 nM Ag Bound (RU) [7] | 100 nM Ag Bound (RU) [8] | 100 nM Ag Bound (RU) [9] | other results
1 | B1 | no binding | 37 RU | 37.6 nM | 0.000983 s⁻¹ | 26200 M⁻¹ s⁻¹ | 11.7 min | 81 RU | 30.5 nM | 0.00128 s⁻¹ | 42000 M⁻¹ s⁻¹ | 9 min | 0 RU | no binding (tested: 100 nM) | 36 RU | 1.24 nM | 0.000124 s⁻¹ | 51 RU | 106 RU | 0 RU | 70 RU | kon [5]: 101000 M⁻¹ s⁻¹; t½ [5]: 92.8 min; Kd [6]: 127 nM; koff [6]: 0.00453 s⁻¹; kon [6]: 35600 M⁻¹ s⁻¹; t½ [6]: 2.5 min; Kd [7]: 78.4 nM; koff [7]: 0.00457 s⁻¹; kon [7]: 58300 M⁻¹ s⁻¹; t½ [7]: 2.5 min; Kd [9]: 8.66 nM; koff [9]: 0.000363 s⁻¹; kon [9]: 41900 M⁻¹ s⁻¹; t½ [9]: 31.8 min
2 | B2 | no binding | 0 RU |  |  |  |  | 0 RU |  |  |  |  | 0 RU | no binding (tested: 100 nM) | 2 RU |  |  | 1 RU | 3 RU | 1 RU | 8 RU | binding result [2]: no binding (tested: 100 nM); binding result [3]: no binding (tested: 100 nM); binding result [5]: no binding (tested: 100 nM)
3 | B3 | no binding | 16 RU | 482 nM | 0.00673 s⁻¹ | 14000 M⁻¹ s⁻¹ | 1.7 min | 41 RU | 246 nM | 0.00682 s⁻¹ | 27700 M⁻¹ s⁻¹ | 1.7 min | 0 RU | no binding (tested: 100 nM) | 26 RU | 22.4 nM | 0.000852 s⁻¹ | 16 RU | 43 RU | 1 RU | 47 RU | kon [5]: 38000 M⁻¹ s⁻¹; t½ [5]: 13.6 min; Kd [6]: 689 nM; koff [6]: 0.0157 s⁻¹; kon [6]: 22800 M⁻¹ s⁻¹; t½ [6]: 0.7 min; Kd [7]: 360 nM; koff [7]: 0.0142 s⁻¹; kon [7]: 39600 M⁻¹ s⁻¹; t½ [7]: 0.8 min; Kd [9]: 41.2 nM; koff [9]: 0.00139 s⁻¹; kon [9]: 33700 M⁻¹ s⁻¹; t½ [9]: 8.3 min
4 | B4 | no binding | 22 RU | 52.7 nM | 0.00167 s⁻¹ | 31700 M⁻¹ s⁻¹ | 6.9 min | 49 RU | 59.8 nM | 0.00226 s⁻¹ | 37800 M⁻¹ s⁻¹ | 5.1 min | 0 RU | no binding (tested: 100 nM) | 49 RU | 0.238 nM | 4.83e-05 s⁻¹ | 31 RU | 69 RU | 0 RU | 43 RU | kon [5]: 203000 M⁻¹ s⁻¹; t½ [5]: 239 min; Kd [6]: 139 nM; koff [6]: 0.00258 s⁻¹; kon [6]: 18600 M⁻¹ s⁻¹; t½ [6]: 4.5 min; Kd [7]: 139 nM; koff [7]: 0.00384 s⁻¹; kon [7]: 27700 M⁻¹ s⁻¹; t½ [7]: 3 min; Kd [9]: 7.31 nM; koff [9]: 0.00031 s⁻¹; kon [9]: 42300 M⁻¹ s⁻¹; t½ [9]: 37.3 min

Reference: patent US20240309103A1 (Regeneron, published 2024)
